Among the data in the Human Domainome abundance scans (Beltran et al. 2025) are abundance fitness values, retold here.

± gives the uncertainty stated by the source.

B1: Ubiquitin-protein ligase residues 30 to 86; numbered along this chain, Q05086 (parent)
chain: KHLIERYYHQLTEGCGNEACTNEFCASCPTFLRMDNNAAAIKALELYKINAKLCDPH

The variants in this data set derive from B1. The experiment in a line: abundance fitness (aPCA) (normalised: wild type 0, dead -1); higher = more abundant; growth selection in yeast, the domain comes from the species named. The settings on record: Homo sapiens.
Turning to KHLIERYYGQLTEGCGNEACTNEFCASCPTFLRMDNNAAAIKALELYKINAKLCDPH, the abundance fitness is -0.008 ± 0.049. The figure for KHLIERYYAQLTEGCGNEACTNEFCASCPTFLRMDNNAAAIKALELYKINAKLCDPH is 0.007 ± 0.062; for KHLIERYYEQLTEGCGNEACTNEFCASCPTFLRMDNNAAAIKALELYKINAKLCDPH it is -0.131 ± 0.067. KHLIERYYSQLTEGCGNEACTNEFCASCPTFLRMDNNAAAIKALELYKINAKLCDPH: the abundance fitness is 0.017 ± 0.061.

With KHLIERYYMQLTEGCGNEACTNEFCASCPTFLRMDNNAAAIKALELYKINAKLCDPH, the abundance fitness is -0.013 ± 0.07.

In the case of KHLIERYYIQLTEGCGNEACTNEFCASCPTFLRMDNNAAAIKALELYKINAKLCDPH, the abundance fitness amounted to 0.015 ± 0.12. The figure for KHLIERYYPQLTEGCGNEACTNEFCASCPTFLRMDNNAAAIKALELYKINAKLCDPH is -0.771 ± 0.097; for KHLIERYYHQNTEGCGNEACTNEFCASCPTFLRMDNNAAAIKALELYKINAKLCDPH it is -0.774 ± 0.13. For the variant KHLIERYYHQRTEGCGNEACTNEFCASCPTFLRMDNNAAAIKALELYKINAKLCDPH, the abundance fitness is -0.872 ± 0.066. Consider KHLIERYYHQETEGCGNEACTNEFCASCPTFLRMDNNAAAIKALELYKINAKLCDPH, for which the abundance fitness was -0.843 ± 0.081. As to KHLIERYYHQSTEGCGNEACTNEFCASCPTFLRMDNNAAAIKALELYKINAKLCDPH, the abundance fitness is -0.425 ± 0.057.

On to KHLIERYYHQKTEGCGNEACTNEFCASCPTFLRMDNNAAAIKALELYKINAKLCDPH, for which the abundance fitness was -0.848 ± 0.1. Consider KHLIERYYHQMTEGCGNEACTNEFCASCPTFLRMDNNAAAIKALELYKINAKLCDPH, for which the abundance fitness is -0.14 ± 0.081. As to KHLIERYYHQQTEGCGNEACTNEFCASCPTFLRMDNNAAAIKALELYKINAKLCDPH, the abundance fitness was -0.41 ± 0.086. Then KHLIERYYHQTTEGCGNEACTNEFCASCPTFLRMDNNAAAIKALELYKINAKLCDPH, with -0.201 ± 0.071; and KHLIERYYHQDTEGCGNEACTNEFCASCPTFLRMDNNAAAIKALELYKINAKLCDPH, with -0.834 ± 0.1. Turning to KHLIERYYHQCTEGCGNEACTNEFCASCPTFLRMDNNAAAIKALELYKINAKLCDPH, the abundance fitness was -0.153 ± 0.064.

KHLIERYYHQGTEGCGNEACTNEFCASCPTFLRMDNNAAAIKALELYKINAKLCDPH: the abundance fitness was -0.681 ± 0.053. As to KHLIERYYHQPTEGCGNEACTNEFCASCPTFLRMDNNAAAIKALELYKINAKLCDPH, the abundance fitness was -0.865 ± 0.13. In the case of KHLIERNYHQLTEGCGNEACTNEFCASCPTFLRMDNNAAAIKALELYKINAKLCDPH, the abundance fitness is -0.658 ± 0.2.

As for KHLIERRYHQLTEGCGNEACTNEFCASCPTFLRMDNNAAAIKALELYKINAKLCDPH, the abundance fitness was -0.925 ± 0.064. Take KHLIERSYHQLTEGCGNEACTNEFCASCPTFLRMDNNAAAIKALELYKINAKLCDPH: the abundance fitness was -0.799 ± 0.066. On to KHLIERHYHQLTEGCGNEACTNEFCASCPTFLRMDNNAAAIKALELYKINAKLCDPH, for which the abundance fitness is -0.289 ± 0.11.

For the variant KHLIEREYHQLTEGCGNEACTNEFCASCPTFLRMDNNAAAIKALELYKINAKLCDPH, the abundance fitness was -0.963 ± 0.096. Then KHLIERKYHQLTEGCGNEACTNEFCASCPTFLRMDNNAAAIKALELYKINAKLCDPH, with -0.796 ± 0.096. For the variant KHLIERMYHQLTEGCGNEACTNEFCASCPTFLRMDNNAAAIKALELYKINAKLCDPH, the abundance fitness is -0.215 ± 0.075.

As for KHLIERDYHQLTEGCGNEACTNEFCASCPTFLRMDNNAAAIKALELYKINAKLCDPH, the abundance fitness was -0.683 ± 0.13. With KHLIERAYHQLTEGCGNEACTNEFCASCPTFLRMDNNAAAIKALELYKINAKLCDPH, the abundance fitness was -0.448 ± 0.06. The figure for KHLIERQYHQLTEGCGNEACTNEFCASCPTFLRMDNNAAAIKALELYKINAKLCDPH is -0.781 ± 0.1; for KHLIERWYHQLTEGCGNEACTNEFCASCPTFLRMDNNAAAIKALELYKINAKLCDPH it is -0.184 ± 0.069. Turning to KHLIERLYHQLTEGCGNEACTNEFCASCPTFLRMDNNAAAIKALELYKINAKLCDPH, the abundance fitness was -0.154 ± 0.06.

As for KHLIERGYHQLTEGCGNEACTNEFCASCPTFLRMDNNAAAIKALELYKINAKLCDPH, the abundance fitness is -0.77 ± 0.05.

Turning to KHLIERCYHQLTEGCGNEACTNEFCASCPTFLRMDNNAAAIKALELYKINAKLCDPH, the abundance fitness was -0.65 ± 0.08. The figure for KHLIERFYHQLTEGCGNEACTNEFCASCPTFLRMDNNAAAIKALELYKINAKLCDPH is -0.034 ± 0.1; for KHLIEKYYHQLTEGCGNEACTNEFCASCPTFLRMDNNAAAIKALELYKINAKLCDPH it is 0.029 ± 0.054. Take KHLIENYYHQLTEGCGNEACTNEFCASCPTFLRMDNNAAAIKALELYKINAKLCDPH: the abundance fitness is -0.006 ± 0.051. The figure for KHLIEIYYHQLTEGCGNEACTNEFCASCPTFLRMDNNAAAIKALELYKINAKLCDPH is -0.151 ± 0.05. For KHLIESYYHQLTEGCGNEACTNEFCASCPTFLRMDNNAAAIKALELYKINAKLCDPH, the abundance fitness is -0.026 ± 0.041. With KHLIEFYYHQLTEGCGNEACTNEFCASCPTFLRMDNNAAAIKALELYKINAKLCDPH, the abundance fitness is -0.147 ± 0.05. As for KHLIEPYYHQLTEGCGNEACTNEFCASCPTFLRMDNNAAAIKALELYKINAKLCDPH, the abundance fitness turned out to be 0.011 ± 0.044. For KHLIELYYHQLTEGCGNEACTNEFCASCPTFLRMDNNAAAIKALELYKINAKLCDPH, the abundance fitness is -0.097 ± 0.041. On to KHLIEVYYHQLTEGCGNEACTNEFCASCPTFLRMDNNAAAIKALELYKINAKLCDPH, for which the abundance fitness is -0.044 ± 0.051. On to KHLIEYYYHQLTEGCGNEACTNEFCASCPTFLRMDNNAAAIKALELYKINAKLCDPH, for which the abundance fitness was -0.209 ± 0.05. As to KHLIEWYYHQLTEGCGNEACTNEFCASCPTFLRMDNNAAAIKALELYKINAKLCDPH, the abundance fitness was -0.292 ± 0.072. Then KHLIEHYYHQLTEGCGNEACTNEFCASCPTFLRMDNNAAAIKALELYKINAKLCDPH, with -0.027 ± 0.046; and KHLIETYYHQLTEGCGNEACTNEFCASCPTFLRMDNNAAAIKALELYKINAKLCDPH, with -0.017 ± 0.043; and KHLIEMYYHQLTEGCGNEACTNEFCASCPTFLRMDNNAAAIKALELYKINAKLCDPH, with -0.079 ± 0.054.
